The record followed here is publication PMC12440821, “ACAD10 and ACAD11 enable mammalian 4-hydroxy acid lipid catabolism” (Nature Structural & Molecular Biology, 2025).

Where a chain is given by its changes, count along the chain named.

Series [1] deals with the molecule itself. Put plainly: cryo-EM structure; single-particle cryo-EM of ACAD11 K* incubated with 100 uM 4-HV-CoA; 50 mM HEPES, 50 mM NaCl, 2% glycerol, 50 uM FAD, pH 7.5; D2 symmetry imposed; 2.6 A.
Series [2] concerns the molecule itself. Nature of the series: cryo-EM structure; single-particle cryo-EM of ACAD11 A* incubated with 100 uM 4-PV-CoA; 50 mM HEPES, 50 mM NaCl, 2% glycerol, 50 uM FAD, pH 7.5; D2 symmetry imposed; 3.6 A.

B1: ACAD11 K* mutant (kinase-inactive mouse acyl-CoA dehydrogenase 11) (enzyme, UniProt Q80XL6 1-779, looked up)
chain: METDVTSDTVEVLPQHKFDLRSLEAYLNQHLPGFGSDSRAVLTVTQYRSGQSNPTFFLQKGSQAYVLRKKPPGSLLPKAHKIDREFKIQKALFSIGFPVAKPLLYCRDASVIGTEFYVMEHVQGRIFRDFSIPGVSSAERAAIYVSVAETLAWLHSLDIRSLKLDKYGTGVGYCKRQVSTWTKQYQASAHQSIPAMDQLSTWLMKNLPDSDSEECLVHGAFKLDNIVFHPKECRVIAVLDWELSTFGHPLTDLAHLSLFYYWPRTLPMINRGSHIPENTGIPLMEELISIYCHRRGIDPNLPNWNFFMALSFFKLAGISQGVYRRYLMGNNSSEDSFLTANTVQPLAETGLQLSKRTLRTTPPQADAKSQLFAQSRRGQEVLTRVKQFMKQHVFPAEKEVAEYYAQSGNSAEKWGHPLVIEKLKEMAKAEGLWNLFLPAVSGLSQVDYALIAEETGKCFFAPDVFNCQAPDTGNMEVLHLYGSEQQKKQWLEPLLRGDITSVFCMTEPNVSSSDATNIECTIQRDGGGYIVNGKKWWSSGAGNPKCKIAIVLGRTESPSASRHRQHSMILVPMDTPGVELIRPLSVFGYMDNMHGGHWEVHFNHVRVPASNLILGEGRGFEISQGRLGPGRIHHCMRTVGLAERILQIMCDRAVQREAFKKKLYEHEVVAHWIAKSRIAIEEIRLLTLKAAHSIDTLGSASARKEIAMIKVAAPKAVCKIADWAIQVHGGAGVSQDYPLANMYAIIRTLRLADGPDEVHLSAIAKMELQDQARRLTARM
notes: catalytic aspartate of the kinase domain replaced with alanine; only the ACAD domains were resolved in the map; Cloned in pE-SUMOstar with a 5' SUMO tag; tag removed with Ulp1; Sample held FAD and 100 uM 4-HV-CoA; also called kinase-dead mutant; source: E. coli B21-CodonPlus (DE3)RIPL, purified (Ni-NTA, cation exchange, size-exclusion chromatography); not shown: SUMO, N-terminal, cleaved
B1: the “stoichiometry N” value in series [1] was found to be 4.

B2: ACAD11 A* mutant (ACAD-inactive mouse acyl-CoA dehydrogenase 11) (enzyme, UniProt Q80XL6 1-779, looked up)
chain: B1 chain with A220D, D753N
notes: catalytic aspartate of the ACAD domain replaced with asparagine; kinase and ACAD domains both resolved; Cloned in pE-SUMOstar with a 5' SUMO tag; tag removed with Ulp1; Sample held FAD and 100 uM 4-PV-CoA; also called ACAD-dead mutant; source: E. coli B21-CodonPlus (DE3)RIPL, purified (Ni-NTA, cation exchange, size-exclusion chromatography); not shown: SUMO, N-terminal, cleaved
Turning to B2, the “stoichiometry N” value in series [2] was found to be 4.
